Drawing on article PMC11626198, “Molecular insights into the interaction between a disordered protein and a folded RNA”, this text covers Kd for two molecules.

The target of the data set is T1, SERF (Small ERDK-Rich Factor) (Saccharomyces cerevisiae, UniProt Q3E7B7).
T1 sequence: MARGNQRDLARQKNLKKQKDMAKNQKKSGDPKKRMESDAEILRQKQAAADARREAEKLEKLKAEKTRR
The data set is described as follows: fluorescence anisotropy; 1:1 model, KD,app; Anisotropy buffer not given in the material; NMR at 27 C; native IM-MS in 100 mM ammonium acetate pH 7.5. To be noted: protein: recombinant, tags: His6-SUMO removed by ULP1 (scarless). (In fluorescence polarisation assays a small probe gives low polarisation when free and higher when bound to something large.)

On to UUUUUUUUUUUUUUUUUUUUUUUUUUUUUU (ssRNA) [FAM-(rU)30], for which, for the setting “single strand”, the Kd came to 1900 ± 200 nM. As to GGCAGAUCUGAGCCUGGGAGCUCUCUGCC (structured_RNA) [FAM-TAR], the Kd (hairpin with UCU bulge and hexanucleotide loop) was determined as 670 ± 40 nM.
